The record followed here is publication PMC3828522.

In one data set the target is Pho full-length (Drosophila melanogaster, UniProt Q8ST83 1-520). Put plainly: EMSA.
For the next data set, the target named is T1, Sfmbt 4MBT wild type (Drosophila melanogaster, UniProt Q9VK33 531-980).
T1 sequence: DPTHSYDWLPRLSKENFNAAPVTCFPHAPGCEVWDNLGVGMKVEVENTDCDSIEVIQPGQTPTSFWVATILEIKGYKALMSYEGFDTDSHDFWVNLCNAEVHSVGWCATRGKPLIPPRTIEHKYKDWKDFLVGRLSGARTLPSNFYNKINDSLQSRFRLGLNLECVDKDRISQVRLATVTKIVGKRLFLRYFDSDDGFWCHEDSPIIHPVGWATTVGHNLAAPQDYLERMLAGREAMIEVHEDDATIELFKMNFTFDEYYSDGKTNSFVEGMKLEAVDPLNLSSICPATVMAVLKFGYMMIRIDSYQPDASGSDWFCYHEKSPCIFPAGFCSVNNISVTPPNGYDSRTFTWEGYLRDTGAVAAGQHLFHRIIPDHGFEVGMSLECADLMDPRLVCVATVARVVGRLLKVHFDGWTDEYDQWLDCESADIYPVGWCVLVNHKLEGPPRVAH
Kind of data set: EMSA.

Data set [1] deals with Pho full-length;Sfmbt 4MBT wild type (Drosophila melanogaster;Drosophila …, UniProt Q8ST83;Q9VK33 1-520;531-980, |). Kind of data set: EMSA supershift.
Chain of Pho full-length;Sfmbt 4MBT wild type (Q8ST83 whole entry, one chain of several): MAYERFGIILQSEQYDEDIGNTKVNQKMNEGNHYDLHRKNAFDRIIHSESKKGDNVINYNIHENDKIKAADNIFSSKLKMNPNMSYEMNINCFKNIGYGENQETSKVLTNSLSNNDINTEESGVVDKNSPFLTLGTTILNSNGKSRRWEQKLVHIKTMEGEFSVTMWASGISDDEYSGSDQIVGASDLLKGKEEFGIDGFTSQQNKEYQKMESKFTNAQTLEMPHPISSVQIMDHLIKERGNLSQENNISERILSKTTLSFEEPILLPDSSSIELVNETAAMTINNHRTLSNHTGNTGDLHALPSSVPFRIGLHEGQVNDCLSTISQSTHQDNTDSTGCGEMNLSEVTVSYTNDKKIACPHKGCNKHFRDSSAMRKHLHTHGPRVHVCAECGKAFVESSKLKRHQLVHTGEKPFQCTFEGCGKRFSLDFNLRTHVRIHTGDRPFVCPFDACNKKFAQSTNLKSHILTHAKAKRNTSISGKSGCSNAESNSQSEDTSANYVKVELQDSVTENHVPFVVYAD

Chain of Pho full-length (Q8ST83 whole entry): as the sequence (Q8ST83 whole entry, one chain of several) above

B1: Pho DNA-binding site probe (dsDNA)
DNA 1: CTCCGTCGCCATAACTGTCG
DNA 2: CGACAGTTATGGCGACGGAG
As for B1, the binding result in the data set with Pho full-length was “binds”; in the data set with Sfmbt 4MBT wild type, “no binding”; in data set [1], “binds”.
